The chains are these.
B1: ADI-14483 (antibody, V domains shown)
VH: QVQLVQSGGRLVKPGGSLRLSCGMSGFGFSSYRMNWVRQAPGKGLEWISSISASSSYTDYANSVKGRFTISRDGANLFLQMNSLRVEDTAVYYCARDWGGHSIFGAVQDLWGQGTLVTVSS
VL: QSVLTQPPSVSGAPGQRVTISCSGSSSNIGAGYDVHWYQQLPGTAPKLLIYGNTNRPSGVPDRFSGSKSGTSASLAITGLQAEDEADYYCQSYDRSLSQVFGAGTKVTVL
notes: full-length IgG (yeast-expressed); also called Antibody Number 44; Ab# 44
B2: ADI-14503 (antibody, V domains shown)
VH: QVQLVQSGGGLVKPGGSLRLSCAASGFSLTNYRMNWVRQAPGKGLEWVSSLKDSSSYIYYADSVKGRFTVSRDDAKNSFFLQMTNVRAEDTAVYYCAREGSDTEYWRLTPPMDVWGNGTTVTVSS
VL: QSVLTQPPSVSVAPRQTARITCGEHNIGTKSVHWYQQKPGQAPVLVIYDDSDRPSGIPARFSGSNSGNTATLTISWVEAGDEAVYYCQVWDSGDHPWLFGGGTQLTVL
notes: full-length IgG (yeast-expressed); also called Antibody Number 64; Ab# 64
B3: ADI-14482 (antibody, V domains shown)
VH: QVQLQQWGAGLVKPSETLSLTCAVSGGSFRGYQWNWFRQPPGKGLEWIGEINHGEYTHYNASLKSRVSLSIDTSKNQFSLNLTSVTAADTAMYFCARASSGTYNFEYWFDPWGQGTLVTVSS
VL: SYVLTQPPSVSVAPGKTAWLTCGGNNIGNKRVHWYQQKPGQAPVLVVYDDYGRPSGTSERVSGSNSGNTATLTISRVEAGDEAEYYCQVWDDPSDHAVFGGGTQLTVL
B4: ADI-14488 (antibody, V domains shown)
VH: EVQLVESGGGLVQPGGSLKLSCTSSGLAFSGSAIHWVRQASGKGLEWVGRIRSKPNSYATEYAASVKGRFTISRDDSQNTAYLQMNSLKAEDTALYYCTLGYCSGDSCSSLRDYWGQGTLVTVSS
VL: QSALIQPASVSGSPGQSITISCTGTSSDVGGYNYVSWYQQHPGKAPKLMIYDVSNRPSGVSNRFSGSKSGNTASLTISGLQAEDEADYYCSSYTSSSTLVFGGGTKVTVL
B5: ADI-14490 (antibody, V domains shown)
VH: QVQLVQSGGGVVQPGRSLRLSCAASGFTFSNYGMHWVRQAPGKGLEWVAVIWYDGSNKYYADSVKGRFTISRDNSKNTVYLQMNSLRADDTAVYYCARDAIFGSGPNWFDPWGQGTLVTVSS
VL: QSVLTQPPSVSGAPGQRVTISCTGSSSNIGAGYDVHWYQQLPGTAPKLLIYGSSNRPSGVPDRFSGSKSGTSASLAITGLQAEDEADYYCQSYESSLRGWVFGGGTKVTVL
B6: ADI-14467 (antibody, V domains shown)
VH: EVQLLESGSEVKKPGTSVKVSCETSGYIFTNYAISWVRQAPGQGLEWLGWISGYNGQTYYAQKVQGRLTLTTDTSTMTAYMDLTSLRSDDTAIYYCVRDVPVISGASTMDYWGQGTLVTVSS
VL: DIVMTQSPLSLPVTHGQPASISCRSSQSLVYSDGNTYLSWFQLRPGQSPRRLIYKVSNRDSGVPDRFSGSGSGTDFTLKISRVEAEDVGVYYCMQATQWPRTFGQGTKVEIK
B7: ADI-14441 (antibody, V domains shown)
VH: QVQLVQSGAEVKKPGSSVKISCKASGGTFNSQAIHWVRQAPGQDLEWMGNIIPGFGSPNSAQNFQGRVTFIADDSTGAAYMDLSSLKSEDTAVYYCATAGWFGESVHLDSWGQGTLVTVSS
VL: not shown
B8: ADI-14522 (antibody, V domains shown)
VH: EVQLVESGAEVKKPGDSVKVSCRASGYSFTGPFLHWVRQAPGQRLEHMGWINPRSGETKYAQSFLGRVTMTRDTSIRSATLELSSLRSDDTAVYYCARDLYSSGWLDNWGQGTLVTVSS
VL: ETTLTQSPATLSVSPGERATLSCRASQGLSSNLAWYQHKPGQAPRLLVYGVATRATGVPARFSGSGSGTEFTLTISSLQSDDFALYYCHQYNDWPYTFGQGTKLEIK
notes: full-length IgG (yeast-expressed); also called Antibody Number 82; Ab# 82
B9: ADI-14487 (antibody, V domains shown)
VH: QVQLVQSGAEVKKPGASVRVSCKASGYTFSSYYIHWVRQAPGQGPEWLGWINPKSGDTIYSYKFQGRVTLTRETSITTAYMELTSLRSDDTAVYYCARVTWQWLVLGGFDYWGQGTLVTVSS
VL: DIVLTQSPLSLPVTPGEPASISCRSSLSLLHSNGDNYLDWYLQKPGQSPQLLIYLGSNRASGVPDRFSGSGSGTDFTLKISRVEAEDVGVYYCMQALHTPLTFGGGTKLEIK
B10: ADI-14478 (antibody, V domains shown)
VH: EVQLVESGGGLVKPGGSLRLSCAASGFTFSDYYMSWIRQAPGKGLEWVSYISISSSYTDYADSVKGRFTISRDNAKNSLYLQMNSLRAEDTAVYYCARDQRDQAVAGRWFDPWGQGTLVTVSS
VL: QSVVTQPPSVSGAPGQRVTISCTGSSSNIGAGFDVHWYQQVPGTAPKLLIYANTNRPSGVPDRFSGSKSGTSASLAITGLKAEDEADYYCQSYDNSLSGSAVFGGGTKVTVL
B11: ADI-14463 (antibody, V domains shown)
VH: QVQLVQSGTEVKKPGASVKVSCKASGYIFDHFAITWVRQAPGQGPEWMGWISAYNGRTEDSGKFPGRLTLTTDPATRTAFLELRGLTPDDTAVYYCARDVPVMGAAFLDYWGQGTLVTVSS
VL: EIVLTQSPLSLPVTVGQPASISCRSGQSLEFSDGNTYLTWFHQRPGQSPRRLIYRGSYRDSGVPDRFRGSGSGTTFTLTISRVEAEDVGIYFCMQGTHWPPTFGQGTKVDIK
B12: ADI-14474 (antibody, V domains shown)
VH: QVQLVQSGPEVKKPGASVTISCQASGYIFNHYSITWVRQAPGQGTEWMGWISAYHGKTEYSGKFHGRVTLTTDTGTRTAFLELRDLTSDDTAIYYCARDVPVMGAAFLDYWGQGTLVTVSS
VL: B11 VL with V15L, H42Q, Y54F, D65E, R68S, T75S, V109L, D110E
B13: ADI-14465 (antibody, V domains shown)
VH: QVQLLESGAGLLKPSETLSLTCSLSGGSFRDFYWAWIRQAPGRGLEWIGDINDGGNTNHSPSLKSRAILSIDASKRQFSLRLTSVTAADTAVYYCARQRLEHTASGYYMDVWGNGTTVTVSS
VL: QSVLTQPPSVSVDPGETATITCGGANIGSKNVYWYQQRPGQAPVLVVYDDIDRPAGIPDRFTDSSSGNTVTLTIYSVEAVDEADYFCQVWDNSSDQPVFGGGTKLTVL
B14: ADI-14480 (antibody, V domains shown)
VH: QVQLVQSGAEVKKPGSSMSISCRASGGSFNNQAIHWIRQAPGEGLEWMGNIIPNFGSQNYAPEFVGRVSFNADASAGTAYMDLSDLTSQDTAVYYCATAGWFGELVRFDSWGQGTLVTVSS
VL: DIVMTQSPATLSVSPGGRATLSCRASETITTNLAWYQQKPGQAPRLLIYGASTRATGIPARFSGSGSGTEFTLTINSLQSEDFAVYYCQQYNNWPPLTFGGGTKLEIK
B15: ADI-14462 (antibody, V domains shown)
VH: QVQLVQSGGGVVQPGGSLRLSCAAYGLTFRAYGMHWVRQAPGKGLEWVAVSWYDGTNEVYADSVKGRFRISRDDSRSTLYLQMNSLRGEDTAVYYCATERMWEENSSSFGWWGRGTLVTVSS
VL: QAVLTQPASVSGSPGQSITISCTGSSSDVGGSNFVSWYQQHPGKAPKLMVYDVNHRPSGISNRFSGSKSGNTASLTISGLQAEDEADYYCTSYTSRSSYVFGSGTKVTVL
B16: ADI-14479 (antibody, V domains shown)
VH: QVQLVQSGSEVKQPGASVKVSCKASGYTFSAYHLHWVRQAPGQGLQWLGRINPNSGATSVAHNFQGRVTLTTDTSISTAYMELSSLTSDDSAVYYCARTMWRWLVEGGFENWGQGTLVTVSS
VL: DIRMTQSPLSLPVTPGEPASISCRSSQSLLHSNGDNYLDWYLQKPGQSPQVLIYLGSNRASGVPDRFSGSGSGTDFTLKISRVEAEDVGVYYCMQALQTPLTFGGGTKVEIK
B17: ADI-14456 (antibody, V domains shown)
VH: QVQLVQSGAEVKKPGASVKVSCEASEYSFSGDYVHWVRQAPGQGLEWMGWIKAVNGGANYAQKFHGRVTMTTDSSKSTVYLEMSRLTPADTAIYFCAKDRAASVHVPAGAFDLWGQGTLVTVSS
VL: DIQMTQSPSSLSAYVGDRVSITCRASQSIDNFLNWYRQRPGKAPELLIYAASTLQGGVPSRFSGSGSGTHFTLTISSLQPEDFATYYCQQSFTIPSITFGQGTRLEIK
B18: ADI-14464 (antibody, V domains shown)
VH: B17 VH with E26A, K63R, K76R, M83L, S84T, A89D, I93V, A110E
VL: B17 VL with M4V, Y14S, D30S, F92Y
B19: ADI-14473 (antibody, V domains shown)
VH: QVQLVQSGAEVKKPGEPLRISCKGSGYTFTSYWISWVRQMPGTGLEWMGRIDPSDSYTYSSPSFQGHVTISVDKSISTAYLQWSSLKASDTAIYYCARHKENYDFWDFWGQGTLVTVSS
VL: ETTLTQSPDSLAVSLGERATINCKSSQTIFFNSNNKISLAWYQQKPGQPPKLLISWASTRESGVPDRFSGSGSGTDFTLTISSLQPEDVAVYFCQQYYSSAFFGPGTRLEIK
notes: full-length IgG (yeast-expressed); also called Antibody Number 35; Ab# 35

Where a chain is given by its changes, count along the chain named. Bounds are passed on as bounds.

The first experiment has as its target RSV F protein of recombinant mKate-RSV, subtype A (strain A2) (Respiratory syncytial virus subtype A …, UniProt P03420 26-574). The experiment is described as follows: cell-based or functional assay.
Turning to B1, the “Neut IC50 subtype A” value is 0.031 µg/mL.
On the same count and under the same terms, with B2 the figure was 0.016 µg/mL; with B3, 0.024 µg/mL.
Still for that read-out and setting: to B4 belongs above 10 µg/mL.
On the same count and under the same terms, to B5 belongs 1.02 µg/mL; to B6, 0.06 µg/mL.
With B7, the “Neut IC50 subtype A” value is above 10 µg/mL.
Same read-out and setting: to B8 belongs 3.53 µg/mL; to B9, above 10 µg/mL; to B10, 0.163 µg/mL.
As for B11, the “Neut IC50 subtype A” value worked out at 0.009 µg/mL.
The same measure, in the same setting: with B12 the figure was 0.019 µg/mL; with B13, 0.431 µg/mL; with B14, above 10 µg/mL.
In the case of B15, the “Neut IC50 subtype A” value is 2.71 µg/mL.
The same measure, in the same setting: to B16 belongs 4.09 µg/mL; to B17, above 10 µg/mL; to B18, above 10 µg/mL.

The target in the next experiment is RSV F protein of recombinant mKate-RSV, subtype B (18537) (Respiratory syncytial virus subtype B …, UniProt P13843 26-574). Nature of the experiment: cell-based or functional assay.
For the molecule B1, the “Neut IC50 subtype B” value turned out to be 0.03 µg/mL.
Same read-out and setting: to B2 belongs 0.026 µg/mL; to B3, 0.031 µg/mL.
B4: the “Neut IC50 subtype B” value is above 10 µg/mL.
Still for that read-out and setting: with B5 the figure was 0.113 µg/mL; with B6, 0.065 µg/mL.
On the same count and under the same terms, with B7 the figure was 3.92 µg/mL.
Same read-out and setting: to B8 belongs 7.29 µg/mL; to B9, above 10 µg/mL.
With B10, the “Neut IC50 subtype B” value was 0.057 µg/mL.
Same read-out and setting: with B11 the figure was 0.036 µg/mL; with B12, 0.016 µg/mL; with B13, 0.124 µg/mL.
On the same count and under the same terms, with B14 the figure was 2.76 µg/mL; with B15, 2.63 µg/mL.
The same measure, in the same setting: with B16 the figure was 22.7 µg/mL.
With B17, the “Neut IC50 subtype B” value was 0.372 µg/mL.
Same read-out and setting: with B18 the figure was 0.161 µg/mL.

A further experiment concerns the target T1, RSV F ectodomain stabilized in the postfusion conformation (F ΔFP), subtype B (Respiratory syncytial virus subtype B, UniProt P13843 26-109; P13843 147-524).
T1 construct: extracellular domain; trimer; also called Postfusion subtype B; postF subtype B
Nature of the experiment: BLI, IgG on AHQ sensor, 100 nM antigen.
B1: the affinity, expressed as Kd, was 20 nM.
Still for that read-out and setting: with B19 the figure was 0.151 nM; with B8, 1.06 nM.

In the next experiment the target is T2, RSV F ectodomain stabilized in the postfusion conformation (F ΔFP), subtype A (Respiratory syncytial virus subtype A, UniProt P03420 26-109; P03420 147-524).
T2 construct: extracellular domain; trimer; furin-cleaved; also called Postfusion subtype A
The experiment is described as follows: BLI, IgG on AHQ sensor, 100 nM antigen.
In the case of B2, the affinity, expressed as Kd, was 26.1 nM.
Same read-out and setting: to B19 belongs 0.224 nM.

For the origin of these results see patent US20250313612A1 (Adimab, published 2025).
